Measured values reported in the supplement of paper PMC11780869.

Each sequence was assayed on Bacillus subtilis (assay: cleaved RNA product abundance (RNA/gDNA barcode ratio) relative to median wild-type variant (ratio to wild type); higher = more accumulation of the downstream cleavage product). Settings: experiment (reporter, strain, medium): exp 8a: truncated aprE reporter, strain BJT201 with 2% xylose (RNase J1 expressed); cleavage site: glnRA (positions -5 to +31 mutated).
Outline: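 Cleaved product abundance is expressed as the RNA:gDNA barcode ratio per construct, scaled to the median construct carrying the unmutated site. The constructs were barcoded, mutagenized RNase Y cleavage-site windows in truncated aprE or tetM reporter mRNAs integrated into the B. subtilis chromosome. Cultures grew in LB at 37°C from OD600 0.0003 to 0.3 before cleaved RNA was gel-selected and barcode-sequenced.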

| Sequence | cleaved RNA product abundance |
| --- | --- |
| CGACATGTCCCGCTTCTTTCATTAATCCGTTAGCAACTGTTTTGCTATATACATTTTCCTTTTAAGAGGAGGAAT | 0.416 |
| CGACATGTCCCGCTTCTTTCATTAATCCGTTAGCAACTGTTTTGCTATATACATTTTCTTTTTAAGAGGAGGAAT | 0.842 |
| CGACATGTCCCGCTTCTTTCATTAATCCGTTAGCAACTGTTTTGCTATATACATTTTTCTTTTAAGAGGAGGAAT | 0.479 |
| CGACATGTCCCGCTTCTTTCATTAATCCGTTAGCAACTGTTTTGCTATATACCTTAACCTTTTAAGAGGAGGAAT | 0.281 |
| CGACATGTCCCGCTTCTTTCATTAATCCGTTAGCAACTGTTTTGCTATATACCTTCACCTTTTAAGAGGAGGAAT | 0.276 |
| CGACATGTCCCGCTTCTTTCATTAATCCGTTAGCAACTGTTTTGCTATATACCTTTACCTTTTAAGAGGAGGAAT | 0.283 |
| CGACATGTCCCGCTTCTTTCATTAATCCGTTAGCAACTGTTTTGCTATATACGTTTACCTTTTAAGAGGAGGAAT | 0.361 |
| CGACATGTCCCGCTTCTTTCATTAATCCGTTAGCAACTGTTTTGCTATATACTTATACCTTTTAAGAGGAGGAAT | 0.926 |
| CGACATGTCCCGCTTCTTTCATTAATCCGTTAGCAACTGTTTTGCTATATACTTTTACCATTTAAGAGGAGGAAT | 0.769 |
| CGACATGTCCCGCTTCTTTCATTAATCCGTTAGCAACTGTTTTGCTATATACTTTTACCTTTTAAGAGGAGGAAT | 0.641 |
| CGACATGTCCCGCTTCTTTCATTAATCCGTTAGCAACTGTTTTGCTATATAGAATTACCTTTTAAGAGGAGGAAT | 1.14 |
| CGACATGTCCCGCTTCTTTCATTAATCCGTTAGCAACTGTTTTGCTATATAGATTTACCCTTTAAGAGGAGGAAT | 0.684 |
| CGACATGTCCCGCTTCTTTCATTAATCCGTTAGCAACTGTTTTGCTATATAGATTTACCTTTTAAGAGGAGGAAT | 1.11 |
| CGACATGTCCCGCTTCTTTCATTAATCCGTTAGCAACTGTTTTGCTATATATAATTACCTTTTAAGAGGAGGAAT | 0.919 |
| CGACATGTCCCGCTTCTTTCATTAATCCGTTAGCAACTGTTTTGCTATATATATATACCTTTTAAGAGGAGGAAT | 1.12 |
| CGACATGTCCCGCTTCTTTCATTAATCCGTTAGCAACTGTTTTGCTATATATATTTACCCTTTAAGAGGAGGAAT | 0.959 |
| CGACATGTCCCGCTTCTTTCATTAATCCGTTAGCAACTGTTTTGCTATATATATTTACCTTTTAAGAGGAGGAAT | 1.03 |
| CGACATGTCCCGCTTCTTTCATTAATCCGTTAGCAACTGTTTTGCTATATATATTTACTTTTTAAGAGGAGGAAT | 1.89 |
| CGACATGTCCCGCTTCTTTCATTAATCCGTTAGCAACTGTTTTGCTATATATATTTATCTTTTAAGAGGAGGAAT | 1.3 |
| CGACATGTCCCGCTTCTTTCATTAATCCGTTAGCAACTGTTTTGCTATATCCATTGACCTTTTAAGAGGAGGAAT | 0.461 |
| CGACATGTCCCGCTTCTTTCATTAATCCGTTAGCAACTGTTTTGCTATATCCATTTACCTTTTAAGAGGAGGAAT | 0.167 |
| CGACATGTCCCGCTTCTTTCATTAATCCGTTAGCAACTGTTTTGCTATATGCAATTACCTTTTAAGAGGAGGAAT | 0.289 |

| Sequence | cleaved RNA product abundance |
| --- | --- |
| CGACATGTCCCGCTTCTTTCATTAATCCGTTAGCAACTGTTTTGCTATATGCATTTAACTTTTAAGAGGAGGAAT | 0.452 |
| CGACATGTCCCGCTTCTTTCATTAATCCGTTAGCAACTGTTTTGCTATATGCATTTACCTTTTAAGAGGAGGAAT | 0.239 |
| CGACATGTCCCGCTTCTTTCATTAATCCGTTAGCAACTGTTTTGCTATATGTATTTACCTTTTAAGAGGAGGAAT | 0.45 |
| CGACATGTCCCGCTTCTTTCATTAATCCGTTAGCAACTGTTTTGCTATATTAATTTACCTTTTAAGAGGAGGAAT | 0.236 |
| CGACATGTCCCGCTTCTTTCATTAATCCGTTAGCAACTGTTTTGCTATATTACATTTACCTTTTAAGAGGAGGAA | 0.443 |
| CGACATGTCCCGCTTCTTTCATTAATCCGTTAGCAACTGTTTTGCTATATTCATATACCTTTTAAGAGGAGGAAT | 0.449 |
| CGACATGTCCCGCTTCTTTCATTAATCCGTTAGCAACTGTTTTGCTATATTCATTTACCTTTTAAGAGGAGGAAT | 0.233 |
| CGACATGTCCCGCTTCTTTCATTAATCCGTTAGCAACTGTTTTGCTATATTGATTTACCTTTTAAGAGGAGGAAT | 0.263 |
| CGACATGTCCCGCTTCTTTCATTAATCCGTTAGCAACTGTTTTGCTATATTTATTTACCTTTTAAGAGGAGGAAT | 0.495 |
| CGACATGTCCCGCTTCTTTCATTAATCCGTTAGCAACTGTTTTGCTATCTAAATTTACCTTTTAAGAGGAGGAAT | 0.123 |
| CGACATGTCCCGCTTCTTTCATTAATCCGTTAGCAACTGTTTTGCTATCTACAGTTACCTTTTAAGAGGAGGAAT | 0.0519 |
| CGACATGTCCCGCTTCTTTCATTAATCCGTTAGCAACTGTTTTGCTATCTACATTTACCTTTTAAGAGGAGGAAT | 0.098 |
| CGACATGTCCCGCTTCTTTCATTAATCCGTTAGCAACTGTTTTGCTATGTACATTTACCTTTTAAGAGGAGGAAT | 0.215 |
| CGACATGTCCCGCTTCTTTCATTAATCCGTTAGCAACTGTTTTGCTATTTAAATTTACCTTTTAAGAGGAGGAAT | 0.144 |
| CGACATGTCCCGCTTCTTTCATTAATCCGTTAGCAACTGTTTTGCTATTTACACTTACCTTTTAAGAGGAGGAAT | 0.12 |
| CGACATGTCCCGCTTCTTTCATTAATCCGTTAGCAACTGTTTTGCTATTTACATATACCTTTTAAGAGGAGGAAT | 0.317 |
| CGACATGTCCCGCTTCTTTCATTAATCCGTTAGCAACTGTTTTGCTATTTACATCTACCTTTTAAGAGGAGGAAT | 0.276 |
| CGACATGTCCCGCTTCTTTCATTAATCCGTTAGCAACTGTTTTGCTATTTACATGTACCTTTTAAGAGGAGGAAT | 0.0435 |
| CGACATGTCCCGCTTCTTTCATTAATCCGTTAGCAACTGTTTTGCTATTTACATTTAACTTTTAAGAGGAGGAAT | 0.208 |
| CGACATGTCCCGCTTCTTTCATTAATCCGTTAGCAACTGTTTTGCTATTTACATTTACCTTTTAAGAGGAGGAAT | 0.16 |
| CGACATGTCCCGCTTCTTTCATTAATCCGTTAGCAACTGTTTTGCTCTATAAATTTACCTTTTAAGAGGAGGAAT | 0.384 |
| CGACATGTCCCGCTTCTTTCATTAATCCGTTAGCAACTGTTTTGCTCTATACATATACCTTTTAAGAGGAGGAAT | 0.176 |

| Sequence | cleaved RNA product abundance |
| --- | --- |
| CGACATGTCCCGCTTCTTTCATTAATCCGTTAGCAACTGTTTTGCTCTATACATTTACCTTTTAAGAGGAGGAAT | 0.265 |
| CGACATGTCCCGCTTCTTTCATTAATCCGTTAGCAACTGTTTTGCTGTATAAATTTACCTTTTAAGAGGAGGAAT | 0.199 |
| CGACATGTCCCGCTTCTTTCATTAATCCGTTAGCAACTGTTTTGCTGTATACATTTACCTTTTAAGAGGAGGAAT | 0.219 |
| CGACATGTCCCGCTTCTTTCATTAATCCGTTAGCAACTGTTTTGCTTTATAAATTTACCTTTTAAGAGGAGGAAT | 0.385 |
| CGACATGTCCCGCTTCTTTCATTAATCCGTTAGCAACTGTTTTGCTTTATACATATACCTTTTAAGAGGAGGAAT | 0.406 |
| CGACATGTCCCGCTTCTTTCATTAATCCGTTAGCAACTGTTTTGCTTTATACATTTAACTTTTAAGAGGAGGAAT | 0.346 |
| CGACATGTCCCGCTTCTTTCATTAATCCGTTAGCAACTGTTTTGCTTTATACATTTACCCTTTAAGAGGAGGAAT | 0.206 |
| CGACATGTCCCGCTTCTTTCATTAATCCGTTAGCAACTGTTTTGCTTTATACATTTACCTTTTAAGAGGAGGAAT | 0.338 |
| CGACATGTCCCGCTTCTTTCATTAATCCGTTAGCAACTGTTTTGCTTTATAGATTTACCTTTTAAGAGGAGGAAT | 0.649 |
| CGACATGTCCCGCTTCTTTCATTAATCCGTTAGCAACTGTTTTGGTACATACATTTACCTTTTAAGAGGAGGAAT | 0.119 |
| CGACATGTCCCGCTTCTTTCATTAATCCGTTAGCAACTGTTTTGGTAGATACATTTACCTTTTAAGAGGAGGAAT | 0.115 |
| CGACATGTCCCGCTTCTTTCATTAATCCGTTAGCAACTGTTTTGGTATATACATTTACATTTTAAGAGGAGGAAT | 0.529 |
| CGACATGTCCCGCTTCTTTCATTAATCCGTTAGCAACTGTTTTGGTATATACATTTACCTTTTAAGAGGAGGAAT | 0.237 |
| CGACATGTCCCGCTTCTTTCATTAATCCGTTAGCAACTGTTTTGGTATATATATTTACCTTTTAAGAGGAGGAAT | 0.224 |
| CGACATGTCCCGCTTCTTTCATTAATCCGTTAGCAACTGTTTTGTGATATACATTTACCTTTTAAGAGGAGGAAT | 0.344 |
| CGACATGTCCCGCTTCTTTCATTAATCCGTTAGCAACTGTTTTGTTAAATACATTTACCTTTTAAGAGGAGGAAT | 0.414 |
| CGACATGTCCCGCTTCTTTCATTAATCCGTTAGCAACTGTTTTGTTATAAACATTTACCTTTTAAGAGGAGGAAT | 0.322 |
| CGACATGTCCCGCTTCTTTCATTAATCCGTTAGCAACTGTTTTGTTATAGACATTTACCTTTTAAGAGGAGGAAT | 0.265 |
| CGACATGTCCCGCTTCTTTCATTAATCCGTTAGCAACTGTTTTGTTATATACAGTTACCTTTTAAGAGGAGGAAT | 0.162 |
| CGACATGTCCCGCTTCTTTCATTAATCCGTTAGCAACTGTTTTGTTATATACATATACCTTTTAAGAGGAGGAAT | 0.573 |
| CGACATGTCCCGCTTCTTTCATTAATCCGTTAGCAACTGTTTTGTTATATACATTGACCTTTTAAGAGGAGGAAT | 2.01 |
| CGACATGTCCCGCTTCTTTCATTAATCCGTTAGCAACTGTTTTGTTATATACATTTAACTTTTAAGAGGAGGAAT | 0.617 |
